Assay results reported in publication doi:10.1101/2020.04.15.043133.
Where two headings read alike, the source gives them in different places.

Key:
[1] = target: CR3 headpiece fragment (integrin αMβ2 headpiece) (human) (UniProt P11215); assay: SEC
[2] = target: iC3b biotinylated on the thioester cysteine (UniProt P01024); assay: SPR
C3d (human) = C3d (human) (UniProt P01024); assay: SPR
[3] = target: iC3b biotinylated on the thioester cysteine (UniProt P01024); assay: SPR; remark: listed apart in the source

Substance: CR3 headpiece fragment (integrin αMβ2 headpiece) (from UniProt P11215 17-773; P05107 23-504) (receptor)
- stoichiometry N [1]: 2
- Kd [2]: 6.2 nM
- fold lower koff than in the Mg2+ buffer [2]: 30 fold
- Kd (C3d (human)): 515 nM
- Kd [3]: 30 nM
